Laboratory results taken from US20200317768A1 (published 2020).

Columns and labels:
Experiment in all cases: SPR; KD of SG1 / KD of variant;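 note: relative to parent M103205H795-SG1 carrying the SG1 human heavy chain constant region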
[1] = biological target: T1, cynomolgus monkey FcγRIIa1 extracellular domain, His-tagged (cynomolgus monkey)
T1 construct: also called cyno FcγRIIa1; cynoFcgRIIa1
T1 chain: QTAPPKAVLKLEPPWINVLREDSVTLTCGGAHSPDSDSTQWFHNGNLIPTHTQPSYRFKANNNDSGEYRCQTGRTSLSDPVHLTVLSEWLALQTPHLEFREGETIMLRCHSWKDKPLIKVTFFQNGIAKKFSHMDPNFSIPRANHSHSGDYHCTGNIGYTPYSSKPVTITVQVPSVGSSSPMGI

[2] = biological target: T2, cynomolgus monkey FcγRIIa2 extracellular domain, His-tagged (cynomolgus monkey)
T2 construct: also called cyno FcγRIIa2; cynoFcgRIIa2
T2 chain: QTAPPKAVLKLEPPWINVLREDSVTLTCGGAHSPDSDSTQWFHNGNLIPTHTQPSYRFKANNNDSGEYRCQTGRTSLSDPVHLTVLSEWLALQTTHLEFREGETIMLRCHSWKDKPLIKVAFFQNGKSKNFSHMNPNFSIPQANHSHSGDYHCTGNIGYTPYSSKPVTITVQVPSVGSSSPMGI

[3] = biological target: T3, cynomolgus monkey FcγRIIa3 extracellular domain, His-tagged (cynomolgus monkey)
T3 construct: also called cyno FcγRIIa3; cynoFcgRIIa3
T3 chain: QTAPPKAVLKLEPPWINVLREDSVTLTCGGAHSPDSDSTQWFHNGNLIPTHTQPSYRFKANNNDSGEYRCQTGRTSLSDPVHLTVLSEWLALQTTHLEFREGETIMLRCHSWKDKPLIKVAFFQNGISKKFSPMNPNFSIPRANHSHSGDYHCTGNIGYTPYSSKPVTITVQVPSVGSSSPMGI

[4] = biological target: T4, cynomolgus monkey FcγRIIb extracellular domain, His-tagged (cynomolgus monkey)
T4 construct: also called cyno FcγRIIb; cynoFcγRIIb
T4 chain: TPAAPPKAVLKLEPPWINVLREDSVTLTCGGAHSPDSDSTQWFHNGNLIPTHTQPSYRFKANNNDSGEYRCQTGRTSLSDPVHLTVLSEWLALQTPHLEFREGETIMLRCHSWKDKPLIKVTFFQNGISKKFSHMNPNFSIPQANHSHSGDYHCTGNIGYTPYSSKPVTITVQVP

[5] = biological target: T5, cynomolgus monkey FcγRIIIaS extracellular domain, His-tagged (cynomolgus monkey, UniProt Q8SPW2 21-206 at identity 1.00))
T5 construct: also called cyno FcγRIIIaS; cynoFcγRIIIaS
T5 chain: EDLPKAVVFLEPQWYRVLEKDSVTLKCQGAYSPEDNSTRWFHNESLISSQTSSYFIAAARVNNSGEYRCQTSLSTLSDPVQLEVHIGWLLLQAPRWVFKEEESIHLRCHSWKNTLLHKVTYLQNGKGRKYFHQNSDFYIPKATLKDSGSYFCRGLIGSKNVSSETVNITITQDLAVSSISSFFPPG

[6] = biological target: T6, human FcγRIIaH extracellular domain, His-tagged (human, UniProt P12318 34-217)
T6 construct: also called human FcγRIIa (type H); FcgRIIaH
T6 sequence: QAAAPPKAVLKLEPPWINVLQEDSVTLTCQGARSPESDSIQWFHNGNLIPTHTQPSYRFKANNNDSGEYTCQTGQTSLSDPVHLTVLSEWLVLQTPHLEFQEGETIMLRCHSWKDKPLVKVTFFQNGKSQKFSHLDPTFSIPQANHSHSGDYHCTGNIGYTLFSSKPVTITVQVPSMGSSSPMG

[7] = biological target: T7, human FcγRIIaR extracellular domain, His-tagged (human, UniProt P12318 34-217)
T7 construct: also called human FcγRIIa (type R); FcgRIIaR
T7 chain: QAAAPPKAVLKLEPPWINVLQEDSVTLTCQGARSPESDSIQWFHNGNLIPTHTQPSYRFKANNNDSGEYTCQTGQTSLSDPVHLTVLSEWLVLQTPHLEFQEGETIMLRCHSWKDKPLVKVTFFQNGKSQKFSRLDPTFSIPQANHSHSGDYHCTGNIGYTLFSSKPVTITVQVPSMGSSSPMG

[8] = biological target: T8, human FcγRIIIaV extracellular domain, His-tagged (human, UniProt P08637 17-208)
T8 construct: also called FcgRIIIaV
T8 sequence (P08637 17-208 F176V): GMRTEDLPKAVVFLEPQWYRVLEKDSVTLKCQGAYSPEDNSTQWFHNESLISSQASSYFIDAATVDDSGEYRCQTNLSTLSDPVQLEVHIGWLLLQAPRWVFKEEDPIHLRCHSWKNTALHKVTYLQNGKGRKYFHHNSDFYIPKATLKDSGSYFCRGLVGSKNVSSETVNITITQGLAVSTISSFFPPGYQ

Binder	KD fold (SG1 = 1) [1] [fold]	KD fold (SG1 = 1) [2] [fold]	KD fold (SG1 = 1) [3] [fold]	KD fold (SG1 = 1) [4] [fold]	KD fold (SG1 = 1) [5] [fold]	KD fold (SG1 = 1) [6] [fold]	KD fold (SG1 = 1) [7] [fold]	KD fold (SG1 = 1) [8] [fold]
M103205H795-MY043/M103202L889-SK1 (antibody, human IgG1, kappa, Substitution put into M103205H795-SG1) heavy: not shown light: DIVMTQSPATLSLSPGERATLSCTSSQSVYHANWLSWFQQKPGQPPKLLIYWASTLAYGVPSRFSGSGSGTDFTLTISSLQPEDAATYYCAGGYGGGRYAFGQGTKVEIKRTVAAPSVFIFPPSDEQLKSGTASVVCLLNNFYPREAKVQWKVDNALQSGNSQESVTEQDSKDSTYSLSSTLTLSKADYEKHKVYACEVTHQGLSSPVTKSFNRGEC	0.6	0.1	0.9	0.4	0.43	0.2	0.7	0.68
M103205H795-MY069/M103202L889-SK1 (antibody, human IgG1, kappa, Substitution put into M103205H795-SG1) heavy: not shown light: DIVMTQSPATLSLSPGERATLSCTSSQSVYHANWLSWFQQKPGQPPKLLIYWASTLAYGVPSRFSGSGSGTDFTLTISSLQPEDAATYYCAGGYGGGRYAFGQGTKVEIKRTVAAPSVFIFPPSDEQLKSGTASVVCLLNNFYPREAKVQWKVDNALQSGNSQESVTEQDSKDSTYSLSSTLTLSKADYEKHKVYACEVTHQGLSSPVTKSFNRGEC	2	3.2	2.6	2.5	4.19	1.6	2.8	3.38
M103205H795-MY068/M103202L889-SK1 (antibody, human IgG1, kappa, Substitution put into M103205H795-SG1) heavy: not shown light: DIVMTQSPATLSLSPGERATLSCTSSQSVYHANWLSWFQQKPGQPPKLLIYWASTLAYGVPSRFSGSGSGTDFTLTISSLQPEDAATYYCAGGYGGGRYAFGQGTKVEIKRTVAAPSVFIFPPSDEQLKSGTASVVCLLNNFYPREAKVQWKVDNALQSGNSQESVTEQDSKDSTYSLSSTLTLSKADYEKHKVYACEVTHQGLSSPVTKSFNRGEC	1.5	1.9	3	1.8	0.67	1.9	2.1	0.58
M103205H795-MY044/M103202L889-SK1 (antibody, human IgG1, kappa, Substitution put into M103205H795-SG1) heavy: not shown light: DIVMTQSPATLSLSPGERATLSCTSSQSVYHANWLSWFQQKPGQPPKLLIYWASTLAYGVPSRFSGSGSGTDFTLTISSLQPEDAATYYCAGGYGGGRYAFGQGTKVEIKRTVAAPSVFIFPPSDEQLKSGTASVVCLLNNFYPREAKVQWKVDNALQSGNSQESVTEQDSKDSTYSLSSTLTLSKADYEKHKVYACEVTHQGLSSPVTKSFNRGEC	1	1.5	0.3	1.1	0.77	0.6	1.2	0.9
M103205H795-MY048/M103202L889-SK1 (P271D) (antibody, human IgG1, kappa, Here the P271D molecule is meant; Put into M103205H795-SG1) heavy: not shown light: DIVMTQSPATLSLSPGERATLSCTSSQSVYHANWLSWFQQKPGQPPKLLIYWASTLAYGVPSRFSGSGSGTDFTLTISSLQPEDAATYYCAGGYGGGRYAFGQGTKVEIKRTVAAPSVFIFPPSDEQLKSGTASVVCLLNNFYPREAKVQWKVDNALQSGNSQESVTEQDSKDSTYSLSSTLTLSKADYEKHKVYACEVTHQGLSSPVTKSFNRGEC	0.6	0.5	3.5	0.5	0.97	0.4	0.5	1.33
M103205H795-MY064/M103202L889-SK1 (antibody, human IgG1, kappa, Substitution put into M103205H795-SG1) heavy: not shown light: DIVMTQSPATLSLSPGERATLSCTSSQSVYHANWLSWFQQKPGQPPKLLIYWASTLAYGVPSRFSGSGSGTDFTLTISSLQPEDAATYYCAGGYGGGRYAFGQGTKVEIKRTVAAPSVFIFPPSDEQLKSGTASVVCLLNNFYPREAKVQWKVDNALQSGNSQESVTEQDSKDSTYSLSSTLTLSKADYEKHKVYACEVTHQGLSSPVTKSFNRGEC	1.3	2	2.5	1.6	3	1.4	1.6	3.68
M103205H795-MY045/M103202L889-SK1 (antibody, human IgG1, kappa, Substitution put into M103205H795-SG1) heavy: not shown light: DIVMTQSPATLSLSPGERATLSCTSSQSVYHANWLSWFQQKPGQPPKLLIYWASTLAYGVPSRFSGSGSGTDFTLTISSLQPEDAATYYCAGGYGGGRYAFGQGTKVEIKRTVAAPSVFIFPPSDEQLKSGTASVVCLLNNFYPREAKVQWKVDNALQSGNSQESVTEQDSKDSTYSLSSTLTLSKADYEKHKVYACEVTHQGLSSPVTKSFNRGEC	0.6	1.3	2.5	0.8	2.57	0.4	0.7	3.38
M103205H795-MY063/M103202L889-SK1 (antibody, human IgG1, kappa, Substitution put into M103205H795-SG1) heavy: not shown light: DIVMTQSPATLSLSPGERATLSCTSSQSVYHANWLSWFQQKPGQPPKLLIYWASTLAYGVPSRFSGSGSGTDFTLTISSLQPEDAATYYCAGGYGGGRYAFGQGTKVEIKRTVAAPSVFIFPPSDEQLKSGTASVVCLLNNFYPREAKVQWKVDNALQSGNSQESVTEQDSKDSTYSLSSTLTLSKADYEKHKVYACEVTHQGLSSPVTKSFNRGEC	2.3	3.4	8.5	5.3	5.37	2.6	5.2	5.06
M103205H795-MY065/M103202L889-SK1 (antibody, human IgG1, kappa, Substitution put into M103205H795-SG1) heavy: not shown light: DIVMTQSPATLSLSPGERATLSCTSSQSVYHANWLSWFQQKPGQPPKLLIYWASTLAYGVPSRFSGSGSGTDFTLTISSLQPEDAATYYCAGGYGGGRYAFGQGTKVEIKRTVAAPSVFIFPPSDEQLKSGTASVVCLLNNFYPREAKVQWKVDNALQSGNSQESVTEQDSKDSTYSLSSTLTLSKADYEKHKVYACEVTHQGLSSPVTKSFNRGEC	1.4	1.8	4	1.4	3.27	1.3	2.2	3.52
